What was measured:
Test in all cases: SPR
[1] = biological target: alpaca ACE2 extracellular domain (residues 1-740) fused with the Fc domain of mouse IgG (alpaca)
[2] = biological target: big-eared horseshoe bat ACE2 extracellular domain (residues 1-740) fused with the Fc domain of mouse IgG (big-eared horseshoe bat)
[3] = biological target: bovine ACE2 extracellular domain (residues 1-740) fused with the Fc domain of mouse IgG (bovine) (UniProt Q58DD0)
[4] = biological target: cat ACE2 extracellular domain (residues 1-740) fused with the Fc domain of mouse IgG (cat) (UniProt Q56H28)
[5] = biological target: dog ACE2 extracellular domain (residues 1-740) fused with the Fc domain of mouse IgG (dog)
[6] = biological target: fox ACE2 extracellular domain (residues 1-740) fused with the Fc domain of mouse IgG (fox)
[7] = biological target: fulvous fruit bat ACE2 extracellular domain (residues 1-740) fused with the Fc domain of mouse IgG (fulvous fruit bat)
[8] = biological target: goat ACE2 extracellular domain (residues 1-740) fused with the Fc domain of mouse IgG (goat)
[9] = biological target: horse ACE2 extracellular domain (residues 1-740) fused with the Fc domain of mouse IgG (horse) (UniProt F6V9L3)
[10] = biological target: little brown bat ACE2 extracellular domain (residues 1-740) fused with the Fc domain of mouse IgG (little brown bat) (UniProt G1PXH7)
[11] = biological target: mink ACE2 extracellular domain (residues 1-740) fused with the Fc domain of mouse IgG (mink)
[12] = biological target: monkey ACE2 extracellular domain (residues 1-740) fused with the Fc domain of mouse IgG (monkey) (UniProt F7AH40)
[13] = biological target: pig ACE2 extracellular domain (residues 1-740) fused with the Fc domain of mouse IgG (pig) (UniProt K7GLM4)
[14] = biological target: rabbit ACE2 extracellular domain (residues 1-740) fused with the Fc domain of mouse IgG (rabbit) (UniProt G1TEF4)
[15] = biological target: raccoon dog ACE2 extracellular domain (residues 1-740) fused with the Fc domain of mouse IgG (raccoon dog) (UniProt B4XEP4)
[16] = biological target: sheep ACE2 extracellular domain (residues 1-740) fused with the Fc domain of mouse IgG (sheep)
[17] = biological target: wild Bactrian camel ACE2 extracellular domain (residues 1-740) fused with the Fc domain of mouse IgG (wild Bactrian camel)

Substance: SARS-CoV-2 prototype RBD (residues 319-541) (from UniProt P0DTC2 319-541) (domain or fragment)
- Kd [1]: 11800 nM
- Kd [2]: 677 nM
- Kd [3]: 181 nM
- Kd [4]: 99 nM
- Kd [5]: 101 nM
- Kd [6]: 56.2 nM
- Kd [7]: 157 nM
- Kd [8]: 214 nM
- Kd [9]: 221 nM
- Kd [10]: 130 nM
- Kd [11]: 305 nM
- Kd [12]: 22 nM
- Kd [13]: 139 nM
- Kd [14]: 48.1 nM
- Kd [15]: 80 nM
- Kd [16]: 174 nM
- Kd [17]: 104 nM

— article PMC9274624
